Test results taken from US20110166062A1 (INDIANA UNIVERSITY RESEARCH AND TECHNOLOGY, published 2011).
*1 amine or outer side, *2 acyl side, *3 side chain or, on linkers, in order; H or OH if unused. Where no end group is shown, it is not given here. Side-chain parts run from the residue outwards. [ ]: non-standard residue; d: D form. The star is where a group is joined. γGlu = O=C(O)[C@H](CCC(=O)[*:2])N[*:1]; Palmitoyl = CCCCCCCCCCCCCCCC(=O)*; Dab = NCC[C@H](N)C(=O)O; Aib = CC(C)(N)C(=O)O

B1: mt-368 (peptide)
peptide: Y[Aib]QGTFTSDYSIYLDKQAA[Aib]EFVNWLLAGGPSSGAPPPSK([γGlu-γGlu-Palmitoyl])-NH2
modifications: N-terminus assumed
SMILES: CCCCCCCCCCCCCCCC(=O)N[C@@H](CCC(=O)N[C@@H](CCC(=O)NCCCC[C@H](NC(=O)[C@H](CO)NC(=O)[C@@H]1CCCN1C(=O)[C@@H]1CCCN1C(=O)[C@@H]1CCCN1C(=O)[C@H](C)NC(=O)CNC(=O)[C@H](CO)NC(=O)[C@H](CO)NC(=O)[C@@H]1CCCN1C(=O)CNC(=O)CNC(=O)[C@H](C)NC(=O)[C@H](CC(C)C)NC(=O)[C@H](CC(C)C)NC(=O)[C@H](Cc1c[nH]c2ccccc12)NC(=O)[C@H](CC(N)=O)NC(=O)[C@@H](NC(=O)[C@H](Cc1ccccc1)NC(=O)[C@H](CCC(=O)O)NC(=O)C(C)(C)NC(=O)[C@H](C)NC(=O)[C@H](C)NC(=O)[C@H](CCC(N)=O)NC(=O)[C@H](CCCCN)NC(=O)[C@H](CC(=O)O)NC(=O)[C@H](CC(C)C)NC(=O)[C@H](Cc1ccc(O)cc1)NC(=O)[C@@H](NC(=O)[C@H](CO)NC(=O)[C@H](Cc1ccc(O)cc1)NC(=O)[C@H](CC(=O)O)NC(=O)[C@H](CO)NC(=O)[C@@H](NC(=O)[C@H](Cc1ccccc1)NC(=O)[C@@H](NC(=O)CNC(=O)[C@H](CCC(N)=O)NC(=O)C(C)(C)NC(=O)[C@@H](N)Cc1ccc(O)cc1)[C@@H](C)O)[C@@H](C)O)[C@@H](C)CC)C(C)C)C(N)=O)C(=O)O)C(=O)O
B2: HSDab(Ac)…ibRRAADFVAWLLDTGPSSGAPPPS amide (peptide)
peptide: HS[Dab](Ac)GTFTSDYSKYLD[Aib]RRAADFVAWLLDTGPSSGAPPPS-NH2
modifications: N-terminus assumed
SMILES: CC(=O)NCC[C@H](NC(=O)[C@H](CO)NC(=O)[C@@H](N)Cc1c[nH]cn1)C(=O)NCC(=O)N[C@H](C(=O)N[C@@H](Cc1ccccc1)C(=O)N[C@H](C(=O)N[C@@H](CO)C(=O)N[C@@H](CC(=O)O)C(=O)N[C@@H](Cc1ccc(O)cc1)C(=O)N[C@@H](CO)C(=O)N[C@@H](CCCCN)C(=O)N[C@@H](Cc1ccc(O)cc1)C(=O)N[C@@H](CC(C)C)C(=O)N[C@@H](CC(=O)O)C(=O)NC(C)(C)C(=O)N[C@@H](CCCNC(=N)N)C(=O)N[C@@H](CCCNC(=N)N)C(=O)N[C@@H](C)C(=O)N[C@@H](C)C(=O)N[C@@H](CC(=O)O)C(=O)N[C@@H](Cc1ccccc1)C(=O)N[C@H](C(=O)N[C@@H](C)C(=O)N[C@@H](Cc1c[nH]c2ccccc12)C(=O)N[C@@H](CC(C)C)C(=O)N[C@@H](CC(C)C)C(=O)N[C@@H](CC(=O)O)C(=O)N[C@H](C(=O)NCC(=O)N1CCC[C@H]1C(=O)N[C@@H](CO)C(=O)N[C@@H](CO)C(=O)NCC(=O)N[C@@H](C)C(=O)N1CCC[C@H]1C(=O)N1CCC[C@H]1C(=O)N1CCC[C@H]1C(=O)N[C@@H](CO)C(N)=O)[C@@H](C)O)C(C)C)[C@@H](C)O)[C@@H](C)O
B3: mt-385 (peptide)
peptide: Y[Aib]QGTFISDK([γGlu-γGlu-Palmitoyl])SIYLDKQAA[Aib]EFVNWLLAGGPSSGAPPPS-NH2
modifications: N-terminus assumed
SMILES: CCCCCCCCCCCCCCCC(=O)N[C@@H](CCC(=O)N[C@@H](CCC(=O)NCCCC[C@H](NC(=O)[C@H](CC(=O)O)NC(=O)[C@H](CO)NC(=O)[C@@H](NC(=O)[C@H](Cc1ccccc1)NC(=O)[C@@H](NC(=O)CNC(=O)[C@H](CCC(N)=O)NC(=O)C(C)(C)NC(=O)[C@@H](N)Cc1ccc(O)cc1)[C@@H](C)O)[C@@H](C)CC)C(=O)N[C@@H](CO)C(=O)N[C@H](C(=O)N[C@@H](Cc1ccc(O)cc1)C(=O)N[C@@H](CC(C)C)C(=O)N[C@@H](CC(=O)O)C(=O)N[C@@H](CCCCN)C(=O)N[C@@H](CCC(N)=O)C(=O)N[C@@H](C)C(=O)N[C@@H](C)C(=O)NC(C)(C)C(=O)N[C@@H](CCC(=O)O)C(=O)N[C@@H](Cc1ccccc1)C(=O)N[C@H](C(=O)N[C@@H](CC(N)=O)C(=O)N[C@@H](Cc1c[nH]c2ccccc12)C(=O)N[C@@H](CC(C)C)C(=O)N[C@@H](CC(C)C)C(=O)N[C@@H](C)C(=O)NCC(=O)NCC(=O)N1CCC[C@H]1C(=O)N[C@@H](CO)C(=O)N[C@@H](CO)C(=O)NCC(=O)N[C@@H](C)C(=O)N1CCC[C@H]1C(=O)N1CCC[C@H]1C(=O)N1CCC[C@H]1C(=O)N[C@@H](CO)C(N)=O)C(C)C)[C@@H](C)CC)C(=O)O)C(=O)O
B4: mt-384 (peptide)
peptide: Y[Aib]QGTFTSDK([γGlu-γGlu-Palmitoyl])SIYLDKQAA[Aib]EFVNWLLAGGPSSGAPPPS-NH2
modifications: N-terminus assumed
SMILES: CCCCCCCCCCCCCCCC(=O)N[C@@H](CCC(=O)N[C@@H](CCC(=O)NCCCC[C@H](NC(=O)[C@H](CC(=O)O)NC(=O)[C@H](CO)NC(=O)[C@@H](NC(=O)[C@H](Cc1ccccc1)NC(=O)[C@@H](NC(=O)CNC(=O)[C@H](CCC(N)=O)NC(=O)C(C)(C)NC(=O)[C@@H](N)Cc1ccc(O)cc1)[C@@H](C)O)[C@@H](C)O)C(=O)N[C@@H](CO)C(=O)N[C@H](C(=O)N[C@@H](Cc1ccc(O)cc1)C(=O)N[C@@H](CC(C)C)C(=O)N[C@@H](CC(=O)O)C(=O)N[C@@H](CCCCN)C(=O)N[C@@H](CCC(N)=O)C(=O)N[C@@H](C)C(=O)N[C@@H](C)C(=O)NC(C)(C)C(=O)N[C@@H](CCC(=O)O)C(=O)N[C@@H](Cc1ccccc1)C(=O)N[C@H](C(=O)N[C@@H](CC(N)=O)C(=O)N[C@@H](Cc1c[nH]c2ccccc12)C(=O)N[C@@H](CC(C)C)C(=O)N[C@@H](CC(C)C)C(=O)N[C@@H](C)C(=O)NCC(=O)NCC(=O)N1CCC[C@H]1C(=O)N[C@@H](CO)C(=O)N[C@@H](CO)C(=O)NCC(=O)N[C@@H](C)C(=O)N1CCC[C@H]1C(=O)N1CCC[C@H]1C(=O)N1CCC[C@H]1C(=O)N[C@@H](CO)C(N)=O)C(C)C)[C@@H](C)CC)C(=O)O)C(=O)O
B5: mt-369 (peptide)
peptide: Y[Aib]EGTFTSDK([γGlu-γGlu-Palmitoyl])SIYLDKQAA[Aib]EFVNWLLAGGPSSGAPPPSK-NH2
modifications: N-terminus assumed
SMILES: CCCCCCCCCCCCCCCC(=O)N[C@@H](CCC(=O)N[C@@H](CCC(=O)NCCCC[C@H](NC(=O)[C@H](CC(=O)O)NC(=O)[C@H](CO)NC(=O)[C@@H](NC(=O)[C@H](Cc1ccccc1)NC(=O)[C@@H](NC(=O)CNC(=O)[C@H](CCC(=O)O)NC(=O)C(C)(C)NC(=O)[C@@H](N)Cc1ccc(O)cc1)[C@@H](C)O)[C@@H](C)O)C(=O)N[C@@H](CO)C(=O)N[C@H](C(=O)N[C@@H](Cc1ccc(O)cc1)C(=O)N[C@@H](CC(C)C)C(=O)N[C@@H](CC(=O)O)C(=O)N[C@@H](CCCCN)C(=O)N[C@@H](CCC(N)=O)C(=O)N[C@@H](C)C(=O)N[C@@H](C)C(=O)NC(C)(C)C(=O)N[C@@H](CCC(=O)O)C(=O)N[C@@H](Cc1ccccc1)C(=O)N[C@H](C(=O)N[C@@H](CC(N)=O)C(=O)N[C@@H](Cc1c[nH]c2ccccc12)C(=O)N[C@@H](CC(C)C)C(=O)N[C@@H](CC(C)C)C(=O)N[C@@H](C)C(=O)NCC(=O)NCC(=O)N1CCC[C@H]1C(=O)N[C@@H](CO)C(=O)N[C@@H](CO)C(=O)NCC(=O)N[C@@H](C)C(=O)N1CCC[C@H]1C(=O)N1CCC[C@H]1C(=O)N1CCC[C@H]1C(=O)N[C@@H](CO)C(=O)N[C@@H](CCCCN)C(N)=O)C(C)C)[C@@H](C)CC)C(=O)O)C(=O)O

How the values were obtained:
Experiment in all cases: cell-based or functional assay
glucagon receptor [1] = target: T1, glucagon receptor (UniProt P47871 26-477, limits assumed)
GIP receptor [2] = target: T2, GIP receptor (UniProt P48546 22-466)
T2 sequence (looked up): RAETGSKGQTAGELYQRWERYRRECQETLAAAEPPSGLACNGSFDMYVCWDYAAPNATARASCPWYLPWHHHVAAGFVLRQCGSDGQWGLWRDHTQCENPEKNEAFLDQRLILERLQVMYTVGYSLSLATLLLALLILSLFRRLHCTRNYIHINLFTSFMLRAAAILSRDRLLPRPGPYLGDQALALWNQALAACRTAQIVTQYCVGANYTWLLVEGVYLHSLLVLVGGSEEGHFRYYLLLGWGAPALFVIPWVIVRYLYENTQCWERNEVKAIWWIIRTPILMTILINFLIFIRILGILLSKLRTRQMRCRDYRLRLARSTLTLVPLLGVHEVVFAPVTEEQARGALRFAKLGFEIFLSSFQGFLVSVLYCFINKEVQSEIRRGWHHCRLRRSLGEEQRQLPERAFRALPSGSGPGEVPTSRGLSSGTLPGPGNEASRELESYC

GLP-1 receptor [3] = target: T3, GLP-1 receptor (UniProt P43220 24-463, limits assumed)
glucagon receptor [4] = target: T1, glucagon receptor; remark: listed apart in the source
GIP receptor [5] = target: T2, GIP receptor; remark: listed apart in the source
GLP-1 receptor [6] = target: T3, GLP-1 receptor; remark: listed apart in the source
glucagon receptor [7] = target: T1, glucagon receptor; remark: listed apart in the source

T1 sequence (P47871 26-477 limits assumed): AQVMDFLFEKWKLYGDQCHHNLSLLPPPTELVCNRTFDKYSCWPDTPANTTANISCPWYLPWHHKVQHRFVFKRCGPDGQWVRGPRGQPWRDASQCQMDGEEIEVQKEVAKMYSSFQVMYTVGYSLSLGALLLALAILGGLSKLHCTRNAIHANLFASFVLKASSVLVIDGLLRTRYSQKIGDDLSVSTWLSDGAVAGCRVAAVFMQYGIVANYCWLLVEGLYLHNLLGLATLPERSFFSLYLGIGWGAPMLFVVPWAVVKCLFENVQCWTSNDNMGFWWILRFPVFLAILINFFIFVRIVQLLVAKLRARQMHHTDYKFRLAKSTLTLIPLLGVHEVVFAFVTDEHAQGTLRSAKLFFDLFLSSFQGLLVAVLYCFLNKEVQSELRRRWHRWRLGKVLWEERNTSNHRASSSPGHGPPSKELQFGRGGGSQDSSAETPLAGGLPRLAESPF

| Binder | EC50, nM; Glucagon Receptor (glucagon receptor [1]) | relative activity; Glucagon Receptor (glucagon receptor [1]) | EC50, nM; GIP Receptor (GIP receptor [2]) | relative activity; GIP Receptor (GIP receptor [2]) | EC50, nM; GLP-1 Receptor (GLP-1 receptor [3]) | relative activity; GLP-1 Receptor (GLP-1 receptor [3]) | % Relative activity at the Receptor for Glucagon (glucagon receptor [4]) | % Relative activity at the Receptor for GIP (GIP receptor [5]) | % Relative activity at the Receptor for GLP-1 (GLP-1 receptor [6]) | % activity* (glucagon receptor [7]) | EC50 (nM) at Glucagon Receptor (glucagon receptor [7]) |
| --- | --- | --- | --- | --- | --- | --- | --- | --- | --- | --- | --- |
| B1 | 0.0069 nM | 492% | 0.00097 nM | 296% | 0.0038 nM | 419% | 492% | 296% | 419% | – | – |
| B2 | – | – | – | – | – | – | – | – | – | 113% | 0.023 nM |
| B3 | – | – | – | – | – | – | 239% | 715% | 3.18% | – | – |
| HS[Dab](Ac)GTFTSDYSKYLD[Aib]RRASDFVSWLLDE [HSDab(Ac)…ibRRASDFVSWLLDE] | – | – | – | – | – | – | – | – | – | 54% | 0.048 nM |
| B4 | – | – | – | – | – | – | 228% | 808% | 349% | – | – |
| HS[Dab](Ac)GTFTSDYSKYLD[Aib]RRATDFVTWLLDE [HSDab(Ac)…ibRRATDFVTWLLDE] | – | – | – | – | – | – | – | – | – | 46% | 0.057 nM |
| B5 | 2.19 nM | 1.54% | 0.0014 nM | 204% | 0.0041 nM | 385% | 1.54% | 204% | 385% | – | – |
